Columns and labels:
Jak2 = Jak2 (UniProt O60674); test: phosphorylation enrichment, bacterial display (enrichment ratio); higher = better substrate or ligand; peptides without Tyr show the background
c-Src = test: as above
MERTK = MERTK (UniProt Q12866); test: as above
EPHB1 = EPHB1 (UniProt P54762); test: as above
Fes = Fes (UniProt P07332); test: as above
EPHB2 = EPHB2 (UniProt P29323); test: as above
c-Abl (mouse) = test: as above
Fer (mouse) = test: as above
FGFR3 = FGFR3 (UniProt P22607); test: as above
AncSZ = test: as above
FGFR1 = FGFR1 (UniProt P11362); test: as above
Fyn = Fyn (UniProt P06241); test: as above
Hck = Hck (UniProt P08631); test: as above
Hck, sequence (P08631 whole entry, looked up): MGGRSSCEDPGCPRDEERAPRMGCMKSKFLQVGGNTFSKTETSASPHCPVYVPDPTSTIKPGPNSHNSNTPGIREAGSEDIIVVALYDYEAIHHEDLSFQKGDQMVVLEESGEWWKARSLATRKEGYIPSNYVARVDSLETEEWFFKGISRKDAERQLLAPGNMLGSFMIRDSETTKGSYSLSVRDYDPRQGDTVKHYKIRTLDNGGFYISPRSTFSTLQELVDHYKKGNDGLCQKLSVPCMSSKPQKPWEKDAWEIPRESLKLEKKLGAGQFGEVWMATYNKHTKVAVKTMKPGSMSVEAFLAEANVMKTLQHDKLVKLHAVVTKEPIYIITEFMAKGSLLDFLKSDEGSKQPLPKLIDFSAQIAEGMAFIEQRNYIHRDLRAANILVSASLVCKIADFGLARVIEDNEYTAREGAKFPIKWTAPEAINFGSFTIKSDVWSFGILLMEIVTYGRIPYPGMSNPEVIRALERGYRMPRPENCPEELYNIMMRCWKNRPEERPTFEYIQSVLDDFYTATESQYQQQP

c-Src SH2 = test: SH2 binding enrichment of the phosphorylated peptide, bacterial display (enrichment ratio); higher = better substrate or ligand; peptides without Tyr show the background
SHP2-C SH2 = test: as above
Grb2 SH2 = Grb2 SH2 (UniProt P62993); test: as above
Grb2 SH2, sequence (P62993 whole entry, looked up, the tested form may be a part): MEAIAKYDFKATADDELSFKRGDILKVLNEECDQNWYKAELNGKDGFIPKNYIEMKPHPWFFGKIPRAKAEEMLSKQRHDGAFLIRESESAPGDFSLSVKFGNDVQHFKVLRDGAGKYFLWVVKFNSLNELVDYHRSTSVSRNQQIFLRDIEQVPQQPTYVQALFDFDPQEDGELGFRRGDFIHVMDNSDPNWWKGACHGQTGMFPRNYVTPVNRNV
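Throughout, for SH2 binding enrichment of the phosphorylated peptide, bacterial display: peptide library displayed on the E. coli surface as eCPX fusions, selected cells deep-sequenced, score is each peptide's frequency after selection divided by its frequency in the input.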
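Throughout, for phosphorylation enrichment, bacterial display: 11-residue human phosphosite peptides and single-mutation variants displayed on the E. coli surface, counted by deep sequencing, each peptide's frequency after selection divided by its frequency in the unselected input library; frequency after pTyr selection over input frequency; kinase dosed for 20-30% of maximal phosphorylation in three min.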

Jak2, sequence (O60674 whole entry, looked up): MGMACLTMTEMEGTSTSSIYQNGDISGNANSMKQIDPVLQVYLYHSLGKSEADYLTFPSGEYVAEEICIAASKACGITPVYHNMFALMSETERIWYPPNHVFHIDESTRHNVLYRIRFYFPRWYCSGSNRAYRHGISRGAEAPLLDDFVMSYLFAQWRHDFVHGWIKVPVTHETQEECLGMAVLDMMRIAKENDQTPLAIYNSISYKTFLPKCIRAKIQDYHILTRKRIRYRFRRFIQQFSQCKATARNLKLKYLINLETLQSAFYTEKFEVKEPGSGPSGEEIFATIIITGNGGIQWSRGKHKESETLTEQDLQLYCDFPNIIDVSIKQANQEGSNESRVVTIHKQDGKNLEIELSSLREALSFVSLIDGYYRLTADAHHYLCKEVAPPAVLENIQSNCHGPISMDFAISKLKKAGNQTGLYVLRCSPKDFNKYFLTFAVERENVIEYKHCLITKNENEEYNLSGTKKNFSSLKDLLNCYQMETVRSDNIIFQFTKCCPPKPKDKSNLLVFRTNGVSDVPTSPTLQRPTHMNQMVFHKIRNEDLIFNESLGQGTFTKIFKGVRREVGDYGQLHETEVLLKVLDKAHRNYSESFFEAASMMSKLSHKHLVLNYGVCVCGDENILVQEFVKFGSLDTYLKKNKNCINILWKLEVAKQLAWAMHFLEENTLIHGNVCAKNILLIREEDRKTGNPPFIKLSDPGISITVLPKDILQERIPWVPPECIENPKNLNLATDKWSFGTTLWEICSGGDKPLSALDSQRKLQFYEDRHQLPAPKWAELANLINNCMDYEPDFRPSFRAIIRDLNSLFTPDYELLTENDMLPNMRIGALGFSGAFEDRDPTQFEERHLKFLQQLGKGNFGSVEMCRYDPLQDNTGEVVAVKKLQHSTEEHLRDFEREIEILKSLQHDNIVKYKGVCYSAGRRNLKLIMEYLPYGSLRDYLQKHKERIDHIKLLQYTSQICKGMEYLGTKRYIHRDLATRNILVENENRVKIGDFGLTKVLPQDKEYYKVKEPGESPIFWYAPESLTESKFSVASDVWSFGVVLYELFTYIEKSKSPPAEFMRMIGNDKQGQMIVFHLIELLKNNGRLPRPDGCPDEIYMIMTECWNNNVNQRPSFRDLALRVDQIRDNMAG
Fes, sequence (P07332 whole entry, looked up): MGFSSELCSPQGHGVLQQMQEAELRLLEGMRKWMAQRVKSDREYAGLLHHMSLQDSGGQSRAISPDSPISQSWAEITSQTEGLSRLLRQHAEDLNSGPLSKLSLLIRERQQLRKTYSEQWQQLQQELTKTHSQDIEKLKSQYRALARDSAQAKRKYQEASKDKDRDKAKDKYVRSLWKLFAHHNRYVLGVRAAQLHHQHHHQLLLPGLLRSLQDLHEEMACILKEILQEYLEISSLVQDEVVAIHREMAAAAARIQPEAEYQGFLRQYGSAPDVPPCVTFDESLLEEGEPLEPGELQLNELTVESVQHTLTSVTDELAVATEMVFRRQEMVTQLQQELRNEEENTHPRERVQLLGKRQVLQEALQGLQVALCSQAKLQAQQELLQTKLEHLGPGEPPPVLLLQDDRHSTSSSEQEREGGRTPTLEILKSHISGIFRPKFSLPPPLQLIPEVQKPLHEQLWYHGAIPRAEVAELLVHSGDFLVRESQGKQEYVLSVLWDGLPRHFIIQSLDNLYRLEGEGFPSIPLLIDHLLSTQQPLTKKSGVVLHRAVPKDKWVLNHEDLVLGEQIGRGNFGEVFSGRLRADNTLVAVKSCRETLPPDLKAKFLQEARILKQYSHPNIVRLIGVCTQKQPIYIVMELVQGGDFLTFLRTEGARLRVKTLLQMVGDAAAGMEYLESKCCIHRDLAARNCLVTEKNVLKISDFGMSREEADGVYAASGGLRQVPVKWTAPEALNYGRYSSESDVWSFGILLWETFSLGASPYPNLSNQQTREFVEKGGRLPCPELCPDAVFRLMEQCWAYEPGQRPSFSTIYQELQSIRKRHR
MERTK, sequence (Q12866 whole entry, looked up): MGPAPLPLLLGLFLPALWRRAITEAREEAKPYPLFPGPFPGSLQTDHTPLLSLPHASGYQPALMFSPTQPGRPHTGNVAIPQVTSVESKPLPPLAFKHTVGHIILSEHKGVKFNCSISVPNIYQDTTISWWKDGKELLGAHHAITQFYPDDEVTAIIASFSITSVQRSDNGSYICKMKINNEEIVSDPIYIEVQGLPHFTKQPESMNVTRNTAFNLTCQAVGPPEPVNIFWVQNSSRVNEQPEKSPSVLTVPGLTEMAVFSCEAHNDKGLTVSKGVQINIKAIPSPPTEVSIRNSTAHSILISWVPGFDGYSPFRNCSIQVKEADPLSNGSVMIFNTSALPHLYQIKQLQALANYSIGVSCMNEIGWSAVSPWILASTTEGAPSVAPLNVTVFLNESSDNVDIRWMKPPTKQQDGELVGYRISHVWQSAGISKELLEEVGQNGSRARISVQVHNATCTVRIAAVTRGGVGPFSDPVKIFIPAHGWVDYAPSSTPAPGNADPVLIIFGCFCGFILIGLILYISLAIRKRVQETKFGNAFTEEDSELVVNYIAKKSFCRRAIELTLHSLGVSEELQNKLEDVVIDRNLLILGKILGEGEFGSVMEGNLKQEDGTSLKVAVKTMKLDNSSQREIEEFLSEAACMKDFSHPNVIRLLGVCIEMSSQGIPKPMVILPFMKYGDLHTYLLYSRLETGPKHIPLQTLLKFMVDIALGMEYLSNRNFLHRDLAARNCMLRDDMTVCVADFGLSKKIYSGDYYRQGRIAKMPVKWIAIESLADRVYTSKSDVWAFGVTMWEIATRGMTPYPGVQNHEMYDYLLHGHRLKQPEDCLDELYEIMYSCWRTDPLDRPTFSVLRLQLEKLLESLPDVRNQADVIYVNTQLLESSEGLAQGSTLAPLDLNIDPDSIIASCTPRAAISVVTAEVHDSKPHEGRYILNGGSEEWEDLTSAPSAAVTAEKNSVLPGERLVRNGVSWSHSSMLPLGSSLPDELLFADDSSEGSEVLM
EPHB2, sequence (P29323 whole entry, looked up): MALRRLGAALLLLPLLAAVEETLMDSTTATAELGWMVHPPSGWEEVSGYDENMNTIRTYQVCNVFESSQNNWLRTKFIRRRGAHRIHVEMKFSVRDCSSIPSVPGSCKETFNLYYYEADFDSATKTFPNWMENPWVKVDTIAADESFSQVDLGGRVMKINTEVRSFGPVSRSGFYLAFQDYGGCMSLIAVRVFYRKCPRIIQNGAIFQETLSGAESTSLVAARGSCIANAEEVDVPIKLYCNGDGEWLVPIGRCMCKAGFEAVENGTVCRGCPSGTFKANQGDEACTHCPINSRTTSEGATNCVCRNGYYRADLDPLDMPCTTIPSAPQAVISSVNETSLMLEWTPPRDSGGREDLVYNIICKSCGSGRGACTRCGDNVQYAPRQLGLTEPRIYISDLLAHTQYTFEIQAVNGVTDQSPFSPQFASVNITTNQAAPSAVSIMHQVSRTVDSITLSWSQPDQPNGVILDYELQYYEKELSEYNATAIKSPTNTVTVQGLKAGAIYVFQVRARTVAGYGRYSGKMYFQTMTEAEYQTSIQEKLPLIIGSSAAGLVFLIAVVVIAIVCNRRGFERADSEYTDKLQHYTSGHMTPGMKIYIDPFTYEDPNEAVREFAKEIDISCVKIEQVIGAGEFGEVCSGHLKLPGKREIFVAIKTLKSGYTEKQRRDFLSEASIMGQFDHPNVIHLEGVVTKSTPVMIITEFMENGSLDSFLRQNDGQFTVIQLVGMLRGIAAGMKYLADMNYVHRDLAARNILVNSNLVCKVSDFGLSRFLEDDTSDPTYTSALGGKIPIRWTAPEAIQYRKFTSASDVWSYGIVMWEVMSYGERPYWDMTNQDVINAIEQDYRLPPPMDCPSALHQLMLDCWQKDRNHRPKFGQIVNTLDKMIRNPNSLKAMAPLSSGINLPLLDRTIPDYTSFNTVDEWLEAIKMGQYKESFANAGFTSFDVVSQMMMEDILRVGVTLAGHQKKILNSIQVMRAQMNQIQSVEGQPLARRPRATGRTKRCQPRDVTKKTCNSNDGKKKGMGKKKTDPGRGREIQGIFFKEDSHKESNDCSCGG

| Sequence | phosphorylation enrichment (Jak2) | phosphorylation enrichment (c-Src) | phosphorylation enrichment (MERTK) | phosphorylation enrichment (EPHB1) | phosphorylation enrichment (Fes) | phosphorylation enrichment (EPHB2) | phosphorylation enrichment (c-Abl (mouse)) | phosphorylation enrichment (Fer (mouse)) | phosphorylation enrichment (FGFR3) | phosphorylation enrichment (AncSZ) | phosphorylation enrichment (FGFR1) | phosphorylation enrichment (Fyn) | phosphorylation enrichment (Hck) | SH2 binding enrichment (c-Src SH2) | SH2 binding enrichment (SHP2-C SH2) | SH2 binding enrichment (Grb2 SH2) |
| --- | --- | --- | --- | --- | --- | --- | --- | --- | --- | --- | --- | --- | --- | --- | --- | --- |
| GLGGGYGGASG [KRT8_Y54] | 0.379 | 0.317 | 0.285 | 0.376 | 0.534 | 0.359 | 0.448 | 0.348 | 0.367 | 0.429 | 0.398 | 0.344 | 0.316 | 0.369 | 0.62 | 0.692 |
| QKFMAYPSQGG [HLCS_Y236_L237P] | 1.2 | 0.779 | 0.613 | 0.388 | 0.886 | 0.525 | 1.12 | 0.654 | 0.484 | 0.625 | 0.512 | 0.388 | 0.537 | 0.477 | 0.654 | 0.941 |
| ASTDYYKRGDF [PDHA1_Y243] | 0.754 | 0.5 | 0.369 | 0.287 | 0.71 | 0.409 | 0.559 | 0.321 | 0.501 | 0.685 | 0.436 | 0.368 | 0.465 | 0.44 | 0.753 | 0.767 |
| LINLKYSVEEE [PCDH19_Y27] | 1.88 | 1.19 | 0.583 | 0.755 | 2.46 | 0.755 | 1.12 | 0.806 | 0.895 | 1.36 | 0.525 | 0.579 | 0.447 | 0.525 | 0.548 | 0.868 |
| GVIRHYVVCST [BTK_Y334] | 1.12 | 0.444 | 0.447 | 0.68 | 1.25 | 0.712 | 0.87 | 0.566 | 0.813 | 1.13 | 0.555 | 0.535 | 0.536 | 0.495 | 0.529 | 0.819 |
| LLFRVYGLESL [INSR_Y94] | 1.77 | 0.565 | 0.792 | 0.96 | 1.76 | 0.828 | 1.15 | 0.757 | 1.4 | 1.88 | 0.542 | 0.752 | 0.465 | 0.588 | 0.734 | 0.718 |
| PLDGEYFTLQI [TP53_Y327] | 4.17 | 3.81 | 0.663 | 1.32 | 1.47 | 1.36 | 1.57 | 1.19 | 7.34 | 4.14 | 9.82 | 4.48 | 2.55 | 0.344 | 0.718 | 0.686 |
| AKKIKYFEGVS [PRKDC_Y682] | 0.427 | 0.387 | 0.383 | 0.324 | 0.547 | 0.44 | 0.328 | 0.42 | 0.332 | 0.429 | 0.295 | 0.321 | 0.447 | 0.479 | 0.83 | 0.79 |
| VNNAVYGIDAM [EIF3J_Y143] | 0.764 | 1 | 0.426 | 0.417 | 0.88 | 0.437 | 0.509 | 0.486 | 0.502 | 0.86 | 0.506 | 1.09 | 0.829 | 0.507 | 0.763 | 0.771 |
| KKHIPYRQHKS [CSNK1G2_Y206_E208Q] | 4.52 | 1.34 | 1.07 | 2.12 | 3.45 | 1.36 | 3.26 | 2.37 | 3.67 | 2.09 | 1.28 | 1.08 | 1.56 | 1.79 | 1.84 | 2.07 |
| RRERDYTNLPS [CSF1R_Y923] | 0.628 | 0.668 | 0.558 | 0.447 | 0.561 | 0.548 | 0.692 | 0.474 | 0.541 | 2.88 | 0.493 | 0.651 | 0.62 | 0.486 | 0.485 | 0.519 |
| LRYDSYWSYCN [SLC20A2_Y433_S434W] | 2.4 | 4.87 | 5.37 | 7.63 | 1.53 | 9.36 | 1.68 | 1.51 | 3.72 | 2.25 | 3.88 | 5.26 | 4.95 | 1.43 | 0.803 | 0.974 |
| LLVVLCKYRCY [PSEN1_Y154_Y154C] | 0.786 | 0.369 | 0.315 | 0.532 | 1.01 | 0.466 | 0.606 | 0.353 | 0.536 | 0.873 | 0.414 | 0.377 | 0.382 | 1.33 | 1.99 | 1.66 |
| SVTGTYSPALN [TP53_Y126_C124G] | 0.835 | 0.549 | 0.444 | 0.419 | 0.769 | 0.424 | 0.717 | 0.434 | 0.593 | 0.661 | 0.394 | 0.584 | 0.621 | 0.415 | 0.747 | 0.852 |
